“Also recorded” adds a separate entry of the source.
Experiments:
LNCaP-abl cells = assay: Cell-cycle distribution by FACS / flow cytometry; assay type: cell-based, human; settings: 1 μM, 48 h
Procedure: LNCaP-abl cells were grown on 10 cm culture dishes (BD Falcon) to approximately 70% confluence in RPMI media supplemented with 10% charcoal-stripped FBS, 1% L-Gln, and 1% PS. Cells were then treated with conjugate 1 or 2 to a final concentration of 1 μM and allowed to incubate at 37° C. for 48 h. Following treatment, cells were fixed and suspended in 2 mL of 1:3 HBSS:Phosphate-Citrate Buffer (pH 8.0) containing 0.1% Triton X-100. Cells were centrifuged (2,000 rpm for 5 min) and suspended in 1 mL of propidium-iodide solution (1 mg propidium iodine, 10 mg EDTA, 250 μL Igepal, and 2.2 μg μL-1 RNAase in 50 mL of PBS). Cells were then harvested for cell-cycle analysis by filtration (CellTrics, 100 μm) into conical tubes (Falcon) and analyzed by flow cytometry (Becton-Dickinson FACScalibur). All data were analyzed using FlowJo software.
The inventors analyzed cell-cycle distribution of LNCaP-abl cells treated with either oligomer 6 or 7 utilizing fluorescence-activated cell sorting (FACS) analysis. These studies provide a quantitative assessment of normal and apoptotic nuclei along with cell distribution in the G0/G1, S, and G2/M phases of the cell-cycle.

PC3 cells = assay: Cell toxicity assay (CyQUANT cell viability), PC3; assay type: cell-based; settings: 20 μM, 72 hours
Procedure: (§1) To evaluate the general cell toxicity of oligomers 6 and 7, a cell viability assay was utilized.
(§2) HEK293 and PC3 cells were seeded in triplicate on 96-well plates (Corning) in DMEM and HAM'S—F media supplemented with 10% FBS, 1% L-Gln and 1% PS, respectively. HEK293 and PC3 cells were then treated with conjugates (1 μM and 20 μM, respectively) and allowed to incubate at 37° C. for 72 hours. Following treatment, relative cell viability was measured using the CyQUANT reagent according to the manufacturer's instructions. Fluorescence intensity was quantified as described above. All data were processed using GraphPad Prism.

HEK293 cells = assay: Cell toxicity assay (CyQUANT cell viability), HEK293; assay type: cell-based, human; settings: 1 μM, 72 hours
Procedure: as §1, §2

AR = biological target: T1, AR (Homo sapiens, UniProt P10275, T878A); assay: Chromatin immunoprecipitation of AR at the PSA enhancer in LNCaP-abl cells; assay type: cell-based; settings: R-1881 10 nM alone, positive control
T1 construct: endogenous in cells; host or cells: LNCaP-abl
T1 sequence (P10275 1-920 T878A): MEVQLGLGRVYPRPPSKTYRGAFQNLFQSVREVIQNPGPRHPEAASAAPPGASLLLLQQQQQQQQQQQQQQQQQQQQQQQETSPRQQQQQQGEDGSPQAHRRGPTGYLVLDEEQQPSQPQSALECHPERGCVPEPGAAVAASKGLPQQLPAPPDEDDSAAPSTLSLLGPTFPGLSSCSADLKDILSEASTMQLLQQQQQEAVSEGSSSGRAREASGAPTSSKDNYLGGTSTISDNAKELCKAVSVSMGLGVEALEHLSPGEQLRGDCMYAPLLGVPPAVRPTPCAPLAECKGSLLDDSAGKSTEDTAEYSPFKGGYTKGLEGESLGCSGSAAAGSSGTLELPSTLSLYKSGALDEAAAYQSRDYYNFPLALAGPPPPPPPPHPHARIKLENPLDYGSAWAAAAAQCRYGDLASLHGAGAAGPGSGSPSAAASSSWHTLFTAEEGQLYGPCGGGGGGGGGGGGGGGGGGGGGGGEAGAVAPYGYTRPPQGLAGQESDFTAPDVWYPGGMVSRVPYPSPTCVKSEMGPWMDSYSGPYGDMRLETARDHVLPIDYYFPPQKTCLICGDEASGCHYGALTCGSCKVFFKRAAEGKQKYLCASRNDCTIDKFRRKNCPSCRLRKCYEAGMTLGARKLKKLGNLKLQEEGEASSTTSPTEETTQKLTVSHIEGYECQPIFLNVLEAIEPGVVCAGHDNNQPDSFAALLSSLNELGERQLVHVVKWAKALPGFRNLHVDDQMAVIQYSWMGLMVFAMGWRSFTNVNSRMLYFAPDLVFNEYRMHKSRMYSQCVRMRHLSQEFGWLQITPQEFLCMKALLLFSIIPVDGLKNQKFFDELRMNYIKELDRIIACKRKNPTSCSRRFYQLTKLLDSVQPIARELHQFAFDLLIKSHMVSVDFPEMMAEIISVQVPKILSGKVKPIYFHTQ
Procedure: Following treatment, proteins were double cross-linked with DSP (Pierce) for 20 min and 1% formalin for 10 min. Cells were lysed, and nuclei were collected, lysed in buffer (1% SDS, 50 mM Tris-HCl (pH 8.0), 10 mM EDTA), and sonicated for 12 min (30 s on, 30 s off) utilizing a Bioruptor sonicator (Diagenode, model XL). Sonicated lysates were precleared for 2 h with Protein A/G agarose beads blocked with salmon sperm DNA (Millipore). […] Control ChIP was concurrently performed with the same quantity of normal mouse and rabbit IgG sera. Immunocomplexes were then washed and cross-linking was reversed. DNA was isolated with a PCR purification kit (Qiagen) according to the manufacturer's instructions, and real-time PCR was performed. Relative enrichment of indicated genomic locus was calculated as a percentage of 4% input normalized to IgG. All data were processed using GraphPad Prism.

COCCN(CC(N)=O)C(=O)CN(CCOC)C(=O)CN(CCCn1cc([C@]2(O)CCC3C4CCC5=CC(=O)CC[C@]5(C)C4CC[C@@]32C)nn1)C(=O)CN(CCOC)C(=O)CN(CCOC)C(=O)CN(CCOC)C(=O)CN(CCOC)C(=O)CN(CCOC)C(=O)CN(CCOC)C(=O)CN(CCOC)C(=O)CN(CCOC)C(=O)CNCCCn1cc([C@]2(O)CCC3C4CCC5=CC(=O)CC[C@]5(C)C4CC[C@@]32C)nn1 (stereo partly shown) [Oligomer 6]
apoptotic cell population (LNCaP-abl cells): no increase in the apoptotic cell population | cytotoxic effects in AR-deficient PC3 cells (PC3 cells): did not exhibit cytotoxic effects; also recorded: cytotoxicity was not observed | cytotoxic effects in HEK293 cells (HEK293 cells): did not exhibit cytotoxic effects; also recorded: cytotoxicity was not observed

COCCN1CC(=O)N(CCCn2cc([C@]3(O)CCC4C5CCC6=CC(=O)CC[C@]6(C)C5CC[C@@]43C)nn2)CC(=O)N(CCOC)CC(=O)N(CCOC)CC(=O)N(CCCn2cc([C@]3(O)CCC4C5CCC6=CC(=O)CC[C@]6(C)C5CC[C@@]43C)nn2)CC(=O)N(CCOC)CC1=O (stereo partly shown) [Oligomer 7]
apoptotic cell population (LNCaP-abl cells): no increase in the apoptotic cell population | cytotoxic effects in AR-deficient PC3 cells (PC3 cells): did not exhibit cytotoxic effects; also recorded: cytotoxicity was not observed | cytotoxic effects in HEK293 cells (HEK293 cells): did not exhibit cytotoxic effects; also recorded: cytotoxicity was not observed

C[C@]1(O)CC[C@H]2[C@@H]3CCC4=CC(=O)CCC4=C3C=C[C@@]21C [Oligomer R-1881]
AR recruitment to the PSA enhancer (AR): promoted AR recruitment

From patent US11766480B2, “Multivalent peptoid oligomers, pharmaceutical compositions and methods of using same” (NEW YORK UNIVERSITY, priority 2012, dated 2023)
